Series [1] addresses C-terminally His-tagged N-MLV CA WT (N-tropic murine leukaemia virus (N-MLV)). Description: co-sedimentation.
The target of series [2] is partner chain of the complex shown [chain 1 S65A R66A L67A R68A G69A]. Put plainly: SILAC-MS of GST pull-down. To be noted: mitotic 293T cell lysates.
For series [3], the system named is hCBS soluble competitor peptide (prototypic foamy virus (PFV)). Description: competition. Conditions: scale: fold decrease of nucleosome binding to immobilised hCBS.
For series [4], the target named is GST-tagged FeLV p12 A53V (feline leukaemia virus (FeLV)). Put plainly: pull-down.
Series [5] concerns the target GST-tagged FeLV p12 I52M (feline leukaemia virus (FeLV)). Description: pull-down.
Series [6] concerns the target GST-tagged Mo-MLV p12_M63I (Moloney murine leukaemia virus (Mo-MLV)). Put plainly: pull-down.
In series [7] the target is GST-tagged Mo-MLV p12_M63I with S61A (Moloney murine leukaemia virus (Mo-MLV)). Put plainly: pull-down.
Series [8] deals with GST-tagged Mo-MLV p12_M63I with S61D (Moloney murine leukaemia virus (Mo-MLV)). Description: pull-down.
Series [9] deals with GST-tagged Mo-MLV p12_M63I with S61E (Moloney murine leukaemia virus (Mo-MLV)). Description: pull-down.

C-terminally His-tagged N-MLV CA WT (N-tropic murine leukaemia virus (N-MLV)), sequence (P03336 215-477 limits assumed): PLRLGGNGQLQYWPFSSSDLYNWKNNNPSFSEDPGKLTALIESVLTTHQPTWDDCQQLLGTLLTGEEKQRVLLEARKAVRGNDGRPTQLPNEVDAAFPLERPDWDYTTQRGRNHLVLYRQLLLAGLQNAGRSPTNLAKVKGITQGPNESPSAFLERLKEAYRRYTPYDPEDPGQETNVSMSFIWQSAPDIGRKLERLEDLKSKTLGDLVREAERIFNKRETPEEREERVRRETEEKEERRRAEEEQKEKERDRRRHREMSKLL
N-MLV p12_WT (purified, untagged) (natural protein), sequence (P03336 130-214 limits assumed): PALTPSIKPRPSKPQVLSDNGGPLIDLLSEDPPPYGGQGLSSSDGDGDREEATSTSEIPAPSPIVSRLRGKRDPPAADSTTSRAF

In series [1], “N-MLV p12_WT (purified, untagged) (natural protein)” gave an amount of p12 pelleted by the CA-nanotubes (67 pmol CA loaded) of 11.2 pmol and a stoichiometry N (p12 per CA (1:6)) of 0.167.
Consider , for which the screen value (SDs from the mean) in series [2] (replicate R1) turned out to be 1.1; in [2] (replicate R2), 2.1.
In series [3], recombinant H3.3 poly-nucleosomes yielded a binding signal of 10.
Take “histone H2B (from UniProt P62807 1-126) (natural protein)”: the fold difference in histone precipitation against the WT FeLV p12 in [4] and in series [5] was under 2 fold throughout. Also, in series [6], the fold more histones pulled down from mitotic than from interphase cell lysates worked out at 4 fold. In series [6], this substance showed a fold reduction of H2B precipitation after kenpaullone of 3.5 fold. Further, the fold reduction of H2B precipitation after roscovitine in series [6] was determined as 1.5 fold. The fold reduction in histone pull down against GST-p12 M63I in [7] was 3 fold; in series [8] it was 6 fold; in series [9], 1.5 fold.

(Values after PMC6021111, “Murine leukemia virus p12 tethers the capsid-containing pre-integration complex to chromatin by binding directly to host nucleosomes in mitosis” (PLoS Pathogens, 2018).)
